The domain aggregation screens of Martell et al. (2025)

Experiment: soluble fraction after stress (log2 fold change); higher = more stays soluble; pooled small domains, quantitative proteomics
Settings: stress: 75 degC
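Note: 20 min heating vs room temperature control held 20 min.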

Sequence	soluble fraction (log2)
HMIKKAILPVAGLGTRFLPASKSIPKEMVTVVDRPAIEYVVREAVEAGIEQIILVTHSSKASIENYFDR	-0.192
HMIKKLDIEPIIKSVVDDFNNIYKLKRGITISYLNDGKNKYFINGIENRIEQIIANLLDNSISFSEDNKDV	0.0165
HMIKLSTNENTALRLVMERGLVTESELKGLFDNPVAVMESLISKMIETNTHWIHSERSENGEWVYAWQ	-2.01
HMIKNDIGKFIKLYRETHQWSQRELAEHLGVSQRNVSYYEKGERIPPADVLKKLSTLFDVPVDVLLGLK	-1.18
HMIKRDLAFSEFIAEVKAGQVREVTIKGNSISGNLNDGREFNTYAPNDPNLVKTLTDQGVLIRAIPLE	0.0691
HMILNPQELGERIRKLRLKRNKTQSYFADMLYISSSYLALIESGKRVPNLDLLIHIAKFTDVTLDYLVFG	-1.24
HMILVLKPGAPEDLKNELIHDIEKMGLRVHVSVGEGTTIIGLIGDTSKISKYTFSSYEIVSNVLRVT	-0.188
HMILYDDEYKGPRYRYGLHSRPLSPGAVPKGFIIHSDRPHPDFRHGTLDYPVKLPDDRAANFELIFIGEFD	-1.59
HMIMMTLGEKIRSIRKAKGMTQQELAEKLNTTKQTIGKYEKGIVTNLPLFRINELARALSTTPAYLTGW	-1.46
HMIMPSDATEAKLLGVLGNEPLHVDEIRNQAELPIEKVSAALALMELKGMVRQVGGMNYVAVR	-0.0915
HMIMQTTSDRINQRMRDLGLQHKDLVAATGASKGTVTNWINGVNNPTGKRLVQLAQALKTTSSWLLTGN	-0.481
HMINDPSALGQRAFVDELLWMAGYVPEKIEIYQTLPNNSRVYRVKLDSVNGGFIFIRWDKKKKEHYV	0.106
HMINEEELLKIENIKRKYPDSKAALMPVLYFFQEKYGFISDDSIKEISQLLNISEVDIKGVVSFYEMFHEK	-1.32
HMINEVVSLRDVPSFIGKAKRDVIRIAEENNLKIKINGNGYVKEQTPNPGNKYKSNQEIKVFLEPG	-0.0743
HMINFSKNIISDTTSIKEAIEILNIISGRDNHILFVLNDKRQLIGTLSDGDVRRGMLASKTISQSVTEVM	-0.402
HMINIDESIDESLSEDDAVLDLLERASASFTKAQEALLEGDLGRYQTLIEQADRLVAKALELLDEKN	-0.808
HMINIQYSYNDGKETLHNLSPEVIAEKIMDDPNGYHIVWKQGMVGWVNANDIDDIAKLLRQKK	-0.311
HMINKDNLIEEILKFINTKIADISSNNPLFDIVAKPYISKVVTNNVSKLDKALSLIADDKGMVDADGLLT	-0.129
HMINLDGIGEKISRLRKEQGVTIRELSEYTGYSVGFLSNLETGKNSPTVESLQRVAEALRTDIIEILTK	-1.2
HMINLNEVLANFQKSYPNLAGFKYDQGMDALVYEGNYIRLNGYMLSRINPTLFSMSPDDIFTYLKNGF	-3.17
HMINRMGRLVEALSHMIANTKPGARLPSEPELARQLGVSRATLREAMRTFEAQGMIHRRQGAGTFVVH	-1.27
HMINYSQKQLIAIQDELSKRFQALENESTKNNVTGFGVGLHYIDIDLIVNTPEKQKEFREKIMDSPAFRFN	-0.893
HMINYYELLKLDMNAAHEEINDAIKLESEKNTIPEDQIRTMKSIFFNTEFKKEYDQRLMNFLLT	-0.671
HMIPDAIDPDGRFKWRAGEAVVGFGRHAGEPLKKIAIENPEFLRWILKADFSTDVKKIASDALKGYFPEK	-0.488
HMIPDLPAVGVNVHKERRRQQLSLDALAAGSGVSKAMLSQIESGKVNPTVATMWKIAHALGVDFELLLKGE	-0.982
HMIPDPPALGSNLHRERRRQQLSLDALAAASGVSKAMLSQIEADKVNPTIATMWKIAHALNIDFETLLRGE	-0.963

Sequence	soluble fraction (log2)
HMIPENKRVLISLTYIYGIGKKISQDILEKANIDSSIKTSQLTDDDVARIRQLIENDYLVEGELRV	0.0291
HMIPLPEDVASMRERLALTPEKADELFGLEDGSFARYEHGEEKVPFVVFQLLWLLGKYPHLIGELR	-1.2
HMIPRGFSRYYILELLQKKPHTGKEIIDNAIKESGGRWNPSPGLIYPLLGRLLDENLIEETNDGKYK	-2.24
HMIPSLTITVNEHSRQITRGTSLYTLRDALYPDADVLVVNGHPADSDRHLEEGDAVVLIRRGA	-0.456
HMIQIQDIAFSEFLQELDKGNIVEVNIKGDLINGDLINGKKFKTVAPYDPNLVEKLSKQNVRINVEPIN	0.157
HMIQLKEHDVVRLRETIVENDEKIPAGTRGVVLSVYDGGRAFAVEVADDRAASAIITAFRDQLEVY	-0.467
HMIQNTGMMESGDSIRGMALDAGFPLLMVVGYRGWTRKGNTPDSAAVYTEPFLNAFRLNYYLVEHDE	0.3
HMIQVNKTQALIIEEMRDNPNITLLELQKTLSLGRTAIQNNVSSLRKRQIIKRVGSNKNGYWEVTDK	-1.89
HMIRQETYLLVRKAVGALPVQMRKIIELAMQGKKNAEIAAQLSISEGTVHTLKKTAYKKLRDRLQE	-3.12
HMIRQGTKQALLIEMLQRPEGASITEIVEATSWQAHTARGAISGALKKKLGLPITSEKHPERGTVYKL	-0.862
HMISAQEQALRNLKLSNGMTWKALAKALGITERSILSYVAAPGTKGYREMPAEVWHKLENISGH	-0.0432
HMISDAEWTIMKALWQSEDKKMTLKEIAEAVADSGWSYTTVRTMVGRLVEKEAIEADESHPRNFRYSAA	-1.2
HMISEGDIIKGTVIDVNEEEVILDLKYYAQGVIKAENLSNDPDFLAAGKISVGDEIEATVIKMDDGEGNIE	0.529
HMISESIPAKDALLRLLNTAYQTRTNAAGEFYFNDVPPGKYILQASVNDVEIIRENISINEN	-0.377
HMISEWDAAYSYAKQYYEENGHLFVPKKYVTSEGAALGKWIWEQRDSYLGLSSYKISDKKIEMLEDIGMFW	-4.03
HMISINVIGEMISGSYGNTPFSRTYEKDIYEQMVKLSDDADQAQTVEEYNKILAEFSLLTTEDLK	-0.546
HMISKWGELVDLAVQLDIIQKSGSWFSMGDERIGQGANSVKDYLIANPDIAEKVEAEVRENLWKLN	-0.625
HMISKYLRIESDILSAIREGRLKPGDKLPGQSEMRRIYNVSAITVRKAFTDLINDGYLVGVRGSGTYVAKR	-0.91
HMISQATMEKMGLTNRERQLVDFIVRGASNQEISEKMFISINTVKIHVSNIFRKAGVRSRTELMDKYP	-3.26
HMISSKDIINDEDGARLGKIADVEIDVATGKILSVHVYRSFKLLHLFGNKDVVQIPWNKIMKIGSDVVIVE	0.102
HMISVENLSNREFEIFQLIGNGFSTKEMAKKLNLSIYTVESHKKNIKEKLKLKNSSDLSKYAIQWVIMQN	-2.94
HMITANNYFNEVERIGVETLPETLRKGHDLVVRSTNSGTNWSNYQNNESIRKVIDLYLQKLNEYVSTST	0.294
HMITGSIQPKNGKYYAVLNLYDHTGKRRPKWVSTGYTVKGNKKKAQEVLNELTRRYSAQLPPSK	-1.05
HMITLPDFVGKDVETVKAWAKENGITLIVNKVEDSAKKDTVISQTPTTYDYSKIMKGSSFTVNVAKE	0.206
HMITNLEPFKDFVRGFSGLHLEGVGQEKLAAALDERIRKTGSANERDYLQLIMEDVAERLKLINILT	-0.627
HMITPAARLRALKIRLSVDEVAQIVQRLVNGETVYQIGKPDTGGHAKATVGKINALRLAGQLHFL	-1.45

Sequence	soluble fraction (log2)
HMITTLLVENLQDVGMRLDHYLVYNLIKYSRSHIQSFIRSGDIRVNGKKVKTGYSLELKDLIHIEMP	-3.66
HMITVPKVINMSETQARQTLDALGLNVTLSATQVMNDKIPYGYVAAQSYSAGKEVPAGTTIELTMSIGL	-2.03
HMIVDYPSFVGKTKQELEKWAKENNIIIRYRQLSVTASDKVKAQLPATTTYKRIMKGSSIEVELEL	-2.44
HMIVIMKAKAEEEDVNRVIDTIQSLGLRTQLNLGAERMVVAVIGDISKIGEDNFFRIRAMKGVENTVFVSK	-2.12
HMIVMPELRGKDLKEAERLLSSHNLRYELVDSVYDKSLAPGVVVEMVPQSGNTVKPGRIIFLSINA	-0.982
HMIVNTTRAPYLLGETEQDAMRLARQAGLVPEIVRQSSAEPAGTVILQSHDFDYRMRRGSVILITVSTGPL	-2.84
HMIVPPAIPFRALGIFGPRDRPIVTFEDGPRLINAREGDVLDGRFILRRVGRESVDFAFVGLPPEITRRIP	-0.571
HMIVSEYIIIGGDKKEYGPVSMGEVGEWVQGGRANGDSKIKKVGTEEWGRLRDFPEFSAYLS	0.121
HMIVVMARETSTDDLEAIRERIESRGMVAQINLGVERTVIGVMGSIPPDFKDEMELMNGVVEVVMISK	-2.56
HMIVVMKTSASERDLQEVIARIEQFGFATRSIVGSERATVSVLGAPLPDSLQEALERMPGVEEVVRITK	-1.48
HMIYAEDFVGRQGTANTILRPSGRIEIEGEVYDAYTRGEYVEAGERVVVISQEGSTLKVRVV	-0.611
HMIYQEGMQVKYQGKEYVISEIQDYKTYKTIKLDDNEGYLNGFITGSEILSFRNESELDLEI	-0.208
HMIYSKSDLELFGIKKIDVMEENILMLILSEYELDQTPKNILIDEAVRLSKKFGADNAYKFVNATLDTLL	-1.15
HMKAETILAIPENQPERLFPNNEDEARKIYRDLAREWHTDRNKSPKAQDVFSHLSKLYDIVIDRIKNKTWT	0.194
HMKAGRNTLARQMAILEVLQKDGRALVDDLAARFETTPQTIRKDLSALAEVNQISRFHGGAALVG	-0.159
HMKAKTYTVQYIDEGKIIKEEELEEGSIINAPEVTKEGHTFIGWYEGEEKYDVYEPITRNLILESKNEIN	-0.176
HMKALEGMRTVFTLADLATEPVTVEITVLEAFKYTTTLEIVQRPVLREWMTNPSMLIRVYHDASTAE	0.0452
HMKAMIIVMKPGADMATISKVLKTIETNGFKPHLSKGEETTVIGVIGDERKLNPDIFSTLEGVERIVPVA	0.251
HMKASTRELLDFVLSQRGVSTASVAKALGISVQNASTRLKKLSNEGLIIRSEASSLTGGIEFLYS	-0.822
HMKDASEFLGAKGKTITPLRPTGAAVINGEKVDVLAEGEFIPKNAEIVVIKVEGSKIIVRNANN	-0.061
HMKDDLTWSEGLMPNVVGMGLRDAMFMLENSGLRVNYSGRGKVTRQSPQPGVRIKRGATVAIELRL	-1.89
HMKDEHYLYIKARVDNGDYPHLSELKSAEEIELVMPKLLQDGIVEFNKETGEYTIGEDVKAEIERL	0.12
HMKDESYALGTRLLSHALGKTKLEDLAQEKIDEVVQQSGNKTLEQLLTNIGLGNALSIGIARQLT	0.345
HMKDGAKYFQLFGLLKNEINRGIYQSGQKIPGENELAEKYGMSRQTVRQALSLLEQESLIERRQGSGTYVR	-0.121
